Data as given in PMC5771576.
Like-named read-outs stand apart in the source and are kept apart here.

How the values were obtained:
Cys14 [1] = target: T1, Cys14 (UniProt position 14, AANWKCNGSQQ); settings: cited from earlier work
Cys14 [2] = target: T1, Cys14; assay: chemical modification; settings: not stated for the 1 min MMTS incubation (activity assay at 25°C); 100 mM TEA, 10 mM EDTA; ligand-free folded enzyme, 250 ug/mL
Cys14 [3] = target: T2, Cys14 (UniProt position 15, AANWKCNGSES); settings: cited from earlier work
Cys14 [4] = target: T2, Cys14; assay: chemical modification; settings: not stated for the 1 min MMTS incubation (activity assay at 25°C); 100 mM TEA, 10 mM EDTA; ligand-free folded enzyme, 250 ug/mL

Substance	pKa (Cys14 [1])	pKa (Cys14 [2])	pKa (Cys14 [3])	pKa (Cys14 [4])
Triosephosphate isomerase (WT TbTIM) (Trypanosoma brucei)	10.53	10.56 ± 0.22	–	–
Triosephosphate isomerase (WT TcTIM) (Trypanosoma cruzi)	–	–	9.27	9.24 ± 0.04
Triosephosphate isomerase triple mutant TbTIM: F28L, A100L, A115Q (Trypanosoma brucei; F28L;A100L;A115Q)	–	9.23 ± 0.03	–	–
Triosephosphate isomerase triple mutant TcTIM: L28F, L100A, Q115A (Trypanosoma cruzi; L28F;L100A;Q115A)	–	–	–	10.69 ± 0.01
